This note sets out measurements from paper PMC3098377, “CpG Islands Recruit a Histone H3 Lysine 36 Demethylase”.

One data set has as its system KDM2A 1-747 (human). As to the kind of experiment: SPR. The conditions noted are these: EMSA: 4% Ficoll 400, 20 mM Hepes pH 7.9, 150 mM KCl, 1 mM EDTA, 0.5 mM DTT, 25 ng/ul poly-dAdT, room temperature, 0.8% agarose gel 0.5x TBE 4 C; SPR: 10 mM …. Background: In EMSA bound probe runs differently from free probe, usually more slowly.
A further data set concerns the target T1, KDM2A ZF-CxxC domain (human, UniProt Q9Y2K7 544-648).
T1 sequence: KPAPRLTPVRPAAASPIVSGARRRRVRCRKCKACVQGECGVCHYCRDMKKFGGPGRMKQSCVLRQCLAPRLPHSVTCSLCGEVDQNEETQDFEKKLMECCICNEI
As to the kind of experiment: EMSA; EMSA: 4% Ficoll 400, 20 mM Hepes pH 7.9, 150 mM KCl, 1 mM EDTA, 0.5 mM DTT, 25 ng/ul poly-dAdT, room temperature, 0.8% agarose gel 0.5x TBE 4 C; SPR: 10 mM Hepes pH 7.9, 150 mM NaCl, 1 mM DTT, further additive truncated in material, KDM2A 0-3 uM. Particulars: protein: recombinant; tags: His (pET30b); label: 32P 5' end; blunt.

What is called Kd is the concentration at which binding is half-saturated. In the case of 75 bp probe, 1 CpG, the Kd in the data set on KDM2A 1-747 (human) worked out at 640 nM.
In the case of 75 bp probe, 6 CpG, the dissociation constant Kd in the data set with KDM2A 1-747 (human) was 560 nM.

B1: short probe with two CpGs (dsDNA)
DNA 1: GTAGGCGGTGCTACACGGTTCCTGAAGTG
DNA 2: CACTTCAGGAACCGTGTAGCACCGCCTAC
Turning to B1, in the data set with KDM2A ZF-CxxC domain, the binding result is given as “binds”.

B2: short probe, CpGs methylated (dsDNA)
DNA 1: GTAGGCGGTGCTACACGGTTCCTGAAGTG
DNA 2: CACTTCAGGAACCGTGTAGCACCGCCTAC
modifications: CpG methylated (5mC); strands and method not stated
Turning to B2, the binding result in the data set with KDM2A ZF-CxxC domain is recorded as “no binding”.
